Residue numbers refer to the chain shown, from its start.
T1: hiR2-FL-P533-T7 (human iRhom2 full length with deletion of P533, 3 x T7 tag) (human, UniProt Q6PJF5 1-856)
T1 construct: The change is a deletion of one residue, not a substitution
T1 sequence: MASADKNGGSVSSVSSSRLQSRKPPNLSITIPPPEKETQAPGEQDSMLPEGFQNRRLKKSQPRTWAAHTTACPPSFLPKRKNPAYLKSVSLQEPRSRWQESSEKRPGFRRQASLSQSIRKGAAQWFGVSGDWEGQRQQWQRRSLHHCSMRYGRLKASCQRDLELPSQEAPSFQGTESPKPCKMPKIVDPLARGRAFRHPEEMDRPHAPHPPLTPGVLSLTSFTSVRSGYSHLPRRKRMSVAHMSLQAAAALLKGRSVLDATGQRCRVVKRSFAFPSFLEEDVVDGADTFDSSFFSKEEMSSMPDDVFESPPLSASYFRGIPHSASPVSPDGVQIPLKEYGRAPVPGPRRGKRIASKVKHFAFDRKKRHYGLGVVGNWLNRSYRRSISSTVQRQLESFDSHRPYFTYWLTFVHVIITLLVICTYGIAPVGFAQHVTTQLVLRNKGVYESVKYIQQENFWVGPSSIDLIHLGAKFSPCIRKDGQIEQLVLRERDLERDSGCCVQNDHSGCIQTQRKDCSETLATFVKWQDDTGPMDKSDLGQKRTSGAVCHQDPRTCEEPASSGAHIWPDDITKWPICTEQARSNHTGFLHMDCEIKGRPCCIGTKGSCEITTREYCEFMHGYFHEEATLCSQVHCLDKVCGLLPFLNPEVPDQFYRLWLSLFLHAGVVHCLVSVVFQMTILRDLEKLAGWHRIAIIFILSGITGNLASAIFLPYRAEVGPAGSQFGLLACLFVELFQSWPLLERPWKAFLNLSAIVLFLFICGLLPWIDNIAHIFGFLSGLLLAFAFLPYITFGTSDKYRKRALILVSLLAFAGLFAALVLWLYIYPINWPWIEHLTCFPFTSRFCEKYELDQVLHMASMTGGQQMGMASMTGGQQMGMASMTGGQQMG

B1: antibody 16 (antibody, V domains shown)
VH: QVTLKESGPGILQPSQTLSLTCSFSGFSLSTFALGVGWIRQPSGRGLEWLAHIWWDDDKYYNPALKSRLTISKDTSKNHVFLKIANVDTADTATYYCARITTYYYGMDYWGQGTSVTVSS
VL: DIVLSQSPATLSVTPGDSVSLFCRASQSIGNHLHWYQQESHASPRLLIKYASQSISGIPSRFSGSGSGTDFTLSINSVETEDFGMYFCQQSYNWPLTFGAGTKLELK
notes: Mouse IgG, kappa light chain; also called clone #16; m16
B2: antibody 3 (antibody, V domains shown)
VH: QVTLKESGPGILQPSQTLSLTCSFSGFSLTTFAMGIGWVRQPSGKGLEWLAHIWWDGEKYNNPVLKSRLTISKDTSKNQVFLRIANVDTPDTATYYCARISSIYYIIDNWGQGTSVTVSS
VL: B1 VL with S5T, D17H, F22S, G30S, H32N, Q38K, E39K, A42E, A51V
notes: Mouse IgG, kappa light chain; also called clone #3; purified antibody 3
B3: antibody 43 (antibody, V domains shown)
VH: QVALKESGPGILQPSQTLSLTCSFSGFSLSTFGMGVGWIRQSSGKGLEWLANIWWDDDKYYNPALKSRLTISKDASKNQAFLKIANVDTADTATYYCARIGNYGSNYWYFDVWGTGTTVTVSS
VL: QIVLTQSPAIMSASPGERVTMTCSANSRISYMYWYQQKPGSSPRLLIYDTSNLASGVPVRFSGSGSGTSYSLTISRMEAEDAATYNCQQWSSYPLTFGAGTKLELK
notes: Mouse IgG, kappa light chain; also called clone #43
B4: antibody 44 (antibody, V domains shown)
VH: B3 VH with A3T, S42P, G44E, N52H, A75T, A80I, A85T, D91E, A98S
VL: QIVLTQSPAVMSASPGEKVTMTCTASSSVYYMYWYQQTPGSSPRLLIYDTSNLASGVPVRFSGSGSGTSYSLTISRMEAEDAATYYCQQWNTYPLTFGAGTKLELK
notes: Mouse IgG, kappa light chain; also called clone #44; m44
B5: antibody 5 (antibody, V domains shown)
VH: B3 VH with A3T, S42P, N52H, D58E, P63S, D74A, A75T, G101S, D111N
VL: QVVLTQSPALMSASPGEKVTMTCSAGSSVSCMYWYQQKPGSSPRVLIYDTSNLASGVPARFTGSGSGTSYSLTISRMEAEDAASYYCQQWNSYPLTFGAGTKLELK
notes: Mouse IgG, kappa light chain; also called clone #5; purified antibody 5
B6: antibody 42 (antibody, V domains shown)
VH: B3 VH with A3T, F24L, M34R, S42P, N52H, D58E, A75T, A80V, K83R, G101Q
VL: B3 VL with Q1L, R18K, S24G, N26T, Y33F, L45V, M77V, A82V, N86Y, S91N
notes: Mouse IgG, kappa light chain; also called clone #42; m42
B7: antibody 22 (antibody, V domains shown)
VH: B3 VH with A3T, S42P, N52H, D58E, P63S, D74A, A75T, A80V, G101S, D111N
VL: B5 VL with C31Y, S84T
notes: Mouse IgG, kappa light chain; also called clone #22; m22
B8: antibody 34 (antibody, V domains shown)
VH: QVTLKESGPGILQPSQTLSLTCSFSGFSLSTFSLGVGWIRQSSGKGLEWLAHIWWDDEKYYNPALKSRLTISKDTSKNQVFLKIANVDAADTATYYCARAYYSKSYYALDYWGQGTSVTVSS
VL: DIQMTQSPSSLSASLGERVSLTCRASQEISGYLSWLQQKPDGTIKRLIYAASTLDSGVPKRFSGSRSGSDYSLAISSLESEDFADYYCLQYANFPFTFGSGTKLEIK
notes: Mouse IgG, kappa light chain; also called clone #34; m34

Target: T1, hiR2-FL-P533-T7 (human iRhom2 full …)
Test: FACS on cells of the row P533-, vs human iR2 wild type = 100%
Text: In brief, immortalized MEF-DKO-hiR2-FL-WT-T7 cells, MEF-DKO-miR2-FL-WT-T7 cells and MEF-DKO-hiR2-FL-R441K-T7, MEF-DKO-hiR2-FL-K443R-T7, MEF-DKO-hiR2-FL-V459I-T7, MEF-DKO-hiR2-FL-G481Q-T7, MEF-DKO-hiR2-FL-L488R-T7, MEF-DKO-hiR2-FL-L493I-T7, MEF-DKO-hiR2-FL-D496T-T7, MEF-DKO-hiR2-FL-H505R-T7, MEF-DKO-hiR2-FL-Q512L-T7, MEF-DKO-hiR2-FL-R513K-T7, MEF-DKO-hiR2-FL-D528N-T7, MEF-DKO-hiR2-FL-P533-T7, MEF-DKO-hiR2-FL-M534S-T7, MEF-DKO-hiR2-FL-G540S-T7, MEF-DKO-hiR2-FL-R543Q-T7, MEF-DKO-hiR2-FL-T544P-T7, MEF-DKO-hiR2-FL-G546A-T7, MEF-DKO-hiR2-FL-A547V-T7, MEF-DKO-hiR2-FL-R582Q-T7, MEF-DKO-hiR2-FL-F588L-T7, MEF-DKO-hiR2-FL-M591I-T7, MEF-DKO-hiR2-FL-E594K-T7, MEF-DKO-hiR2-FL-E626D-T7, MEF-DKO-hiR2-FL-L657I-T7, and MEF-DKO-hiR2-FL-H835Y-T7 cells were harvested with 10 mM EDTA in PBS, washed and resuspended in FACS buffer (PBS, 3% FBS, 0.05% sodium azide), and seeded in Nunc U-bottom 96-well plates (Thermo Fisher Scientific, USA) at approximately 3×10⁵ cells per well. To pellet cells and remove supernatants, the plates were centrifuged at 1,500 rpm and 4° C. for 3 minutes. For primary staining, cells were resuspended in 100 μl per well of either FACS buffer alone (controls) or the purified antibodies 3, 5, 16, 22, 34, 42, 43, 44, 48, and 50 of the present disclosure at 3 μg/ml FACS buffer and incubated on ice for 1 hour. Afterwards, plates were centrifuged at 1,500 rpm and 4° C. for 3 minutes and washed twice with 200 μl per well of FACS buffer. For secondary staining, cells were spun down and resuspended in 100 μl per well of PE-conjugated goat anti-mouse IgG F(ab′)2 detection fragment (Dianova, Germany) diluted 1:100 in FACS buffer. Protected from light, the cell suspensions were incubated on ice for 1 hour. Plates were then centrifuged at 1,500 rpm and 4° C. for 3 minutes and washed three times with 200 μl per well of FACS buffer. Finally, cells were resuspended in 150 μl per well of FACS buffer and analyzed using a BD Accuri™ C6 Plus flow cytometer (Becton Dickinson, Germany).

Q: Which “grade of loss of binding vs wild type” value does the source give for B1 here?
A: The value was 3 grade (3 => 95% loss of binding vs wild type).

Q: For B2, which “grade of loss of binding vs wild type” value is on record?
A: The value was 3 grade (3 => 95% loss of binding vs wild type).

Q: How did the “grade of loss of binding vs wild type” value turn out when B3 was run?
A: Its value is 3 grade (3 => 95% loss of binding vs wild type).

Q: B4 was tested. Which “grade of loss of binding vs wild type” value did it give?
A: Its value is 3 grade (3 => 95% loss of binding vs wild type).

Q: B5 was tested. Which “grade of loss of binding vs wild type” value did it give?
A: The value was 3 grade (3 => 95% loss of binding vs wild type).

Q: Which “grade of loss of binding vs wild type” value does the source give for B6 here?
A: Its value is 3 grade (3 => 95% loss of binding vs wild type).

Q: For B7, which “grade of loss of binding vs wild type” value is on record?
A: Its value is 3 grade (3 => 95% loss of binding vs wild type).

Q: Which “grade of loss of binding vs wild type” value does the source give for B8 here?
A: Its value is 3 grade (3 => 95% loss of binding vs wild type).

— patent US20240174744A1 (SCIRHOM, published 2024)
